The source of these data is patent publication US10253076B2, “Peptides and combination of peptides for use in immunotherapy against ovarian cancer and other cancers” (immatics biotechnologies GmbH, priority 2015, dated 2019).

The experiment concerns the target HLA-A*02:01 (Homo sapiens, UniProt P04439, D140Y/D185E/D98H/E176V/E277Q/G131W/G231S/I119V/I121R/I166T/I218V/L300P/L318F/N151K/N90K/P208A/P217A/Q86G/Q94H/R138H/R169H/T345S). Kind of experiment: MHC binding assay (UV-ligand exchange, beta2m ELISA, peptide exchange yield). The following applies: binding of HLA-class I restricted peptides to HLA-A*02:01, ranged by peptide exchange yield (UV-ligand exchange, β2m ELISA). The text has this:
Candidate peptides for T cell based therapies according to the present invention were further tested for their MHC binding capacity (affinity). The individual peptide-MHC complexes were produced by UV-ligand exchange, where a UV-sensitive peptide is cleaved upon UV-irradiation, and exchanged with the peptide of interest as analyzed. Only peptide candidates that can effectively bind and stabilize the peptide-receptive MHC molecules prevent dissociation of the MHC complexes. To determine the yield of the exchange reaction, an ELISA was performed based on the detection of the light chain (β2m) of stabilized MHC complexes. The assay was performed as generally described in Rodenko et al. (Rodenko et al., 2006).
96 well MAXISorp plates (NUNC) were coated over night with 2ug/ml streptavidin in PBS at room temperature, washed 4× and blocked for 1 h at 37° C. in 2% BSA containing blocking buffer. […] Peptide-MHC monomers of the UV-exchange reaction were diluted 100 fold in blocking buffer. Samples were incubated for 1 h at 37° C., washed four times, incubated with 2ug/ml HRP conjugated anti-82m for 1 h at 37° C., washed again and detected with TMB solution that is stopped with […]. Absorption was measured at 450 nm. Candidate peptides that show a high exchange yield (preferably higher than 50%, most preferred higher than 75%) are generally preferred for a generation and production of antibodies or fragments thereof, and/or T cell receptors or fragments thereof, as they show sufficient avidity to the MHC molecules and prevent dissociation of the MHC complexes.

Take “152 (ILFEDIFDV; listed as Homo sapiens) [compound 152]”: the Peptide exchange result is reported as “″+++″ (≥50% = +++)”.

Regarding “153 (FLIANVLYL; listed as Homo sapiens) [compound 153]”, the Peptide exchange entry is “″+″ (≥10% = +)”.

Take “154 (ALDDGTPAL; listed as Homo sapiens) [compound 154]”: the Peptide exchange result is on record as “″++″ (≥20% = ++)”.

For the substance “155 (RVANLHFPSV; listed as Homo sapiens) [compound 155]”, the Peptide exchange result was “″+++″ (≥50% = +++)”.

Take “157 (SLNDEVPEV; listed as Homo sapiens) [compound 157]”: the Peptide exchange result is on record as “″++″ (≥20% = ++)”.

As to “158 (KLFDVDEDGYI; listed as Homo sapiens) [compound 158]”, the Peptide exchange entry was “″+++″ (≥50% = +++)”.

Regarding “159 (GLVGNPLPSV; listed as Homo sapiens) [compound 159]”, the Peptide exchange result is given as “″++++″ (≥75% = ++++)”.

Consider “160 (FLFDEEIEQI; listed as Homo sapiens) [compound 160]”, for which the Peptide exchange result is listed as “″+++″ (≥50% = +++)”.

Regarding “161 (ALLEGVNTV; listed as Homo sapiens) [compound 161]”, the Peptide exchange result is given as “″+++″ (≥50% = +++)”.

Turning to “162 (YQQAQVPSV; listed as Homo sapiens) [compound 162]”, the Peptide exchange result was “″+++″ (≥50% = +++)”.

For “163 (ALDEMGDLLQL; listed as Homo sapiens) [compound 163]”, the Peptide exchange result is “″+++″ (≥50% = +++)”.

Take “164 (ALLPQPKNLTV; listed as Homo sapiens) [compound 164]”: the Peptide exchange entry is “″+++″ (≥50% = +++)”.

With “165 (SLLDEIRAV; listed as Homo sapiens) [compound 165]”, the Peptide exchange result is “″+++″ (≥50% = +++)”.

As to “167 (KVLEVTEEFGV; listed as Homo sapiens) [compound 167]”, the Peptide exchange result is listed as “″+++″ (≥50% = +++)”.

Consider “168 (KILDADIQL; listed as Homo sapiens) [compound 168]”, for which the Peptide exchange entry is listed as “″++++″ (≥75% = ++++)”.

As for “169 (NLPEYLPFV; listed as Homo sapiens) [compound 169]”, the Peptide exchange result is given as “″+++″ (≥50% = +++)”.

In the case of “170 (RLQETLSAA; listed as Homo sapiens) [compound 170]”, the Peptide exchange result was “″+++″ (≥50% = +++)”.

For “171 (LLLPLQILL; listed as Homo sapiens) [compound 171]”, the Peptide exchange result is reported as “″+++″ (≥50% = +++)”.

On to “172 (VLYSYTIITV; listed as Homo sapiens) [compound 172]”, for which the Peptide exchange entry is “″++″ (≥20% = ++)”.

For the substance “173 (LLDSASAGLYL; listed as Homo sapiens) [compound 173]”, the Peptide exchange entry is given as “″+++″ (≥50% = +++)”.

Consider “174 (ALAQYLITA; listed as Homo sapiens) [compound 174]”, for which the Peptide exchange entry is reported as “″+++″ (≥50% = +++)”.

As for “175 (YLFENISQL; listed as Homo sapiens) [compound 175]”, the Peptide exchange result is “″+++″ (≥50% = +++)”.

As for “176 (YLMEGSYNKVFL; listed as Homo sapiens) [compound 176]”, the Peptide exchange result is “″++″ (≥20% = ++)”.

Consider “177 (YLLPEEYTSTL; listed as Homo sapiens) [compound 177]”, for which the Peptide exchange entry was “″++++″ (≥75% = ++++)”.

For “178 (ALTEIAFVV; listed as Homo sapiens) [compound 178]”, the Peptide exchange entry is “″++++″ (≥75% = ++++)”.

Consider “179 (KVLNELYTV; listed as Homo sapiens) [compound 179]”, for which the Peptide exchange result is recorded as “″+++″ (≥50% = +++)”.

Consider “180 (FQIDPHSGLVTV; listed as Homo sapiens) [compound 180]”, for which the Peptide exchange result is on record as “″++″ (≥20% = ++)”.

“181 (LLWAGTAFQV; listed as Homo sapiens) [compound 181]”: the Peptide exchange result is given as “″+++″ (≥50% = +++)”.

Regarding “182 (MLLEAPGIFL; listed as Homo sapiens) [compound 182]”, the Peptide exchange entry is “″+++″ (≥50% = +++)”.

For the substance “183 (FGLDLVTEL; listed as Homo sapiens) [compound 183]”, the Peptide exchange entry is “″+++″ (≥50% = +++)”.

Consider “184 (YLMDINGKMWL; listed as Homo sapiens) [compound 184]”, for which the Peptide exchange entry was “″+++″ (≥50% = +++)”.

As to “185 (FLIDDKGYTL; listed as Homo sapiens) [compound 185]”, the Peptide exchange entry is on record as “″++″ (≥20% = ++)”.

As for “186 (TLFFQQNAL; listed as Homo sapiens) [compound 186]”, the Peptide exchange entry is “″++″ (≥20% = ++)”.

Consider “187 (RQISIRGIVGV; listed as Homo sapiens) [compound 187]”, for which the Peptide exchange result is given as “″+++″ (≥50% = +++)”.

In the case of “188 (GLFPVTPEAV; listed as Homo sapiens) [compound 188]”, the Peptide exchange entry is listed as “″+++″ (≥50% = +++)”.

On to “189 (ALQRKLPYV; listed as Homo sapiens) [compound 189]”, for which the Peptide exchange entry is listed as “″+++″ (≥50% = +++)”.

Regarding “190 (FLSSLTETI; listed as Homo sapiens) [compound 190]”, the Peptide exchange entry was “″+++″ (≥50% = +++)”.

Consider “191 (LLQEGQALEYV; listed as Homo sapiens) [compound 191]”, for which the Peptide exchange result was “″++″ (≥20% = ++)”.

As for “192 (KMLDGASFTL; listed as Homo sapiens) [compound 192]”, the Peptide exchange result is recorded as “″+++″ (≥50% = +++)”.

As for “193 (QLLDADGFLNV; listed as Homo sapiens) [compound 193]”, the Peptide exchange entry is “″+++″ (≥50% = +++)”.

“194 (ALPLFVITV; listed as Homo sapiens) [compound 194]”: the Peptide exchange entry is “″+++″ (≥50% = +++)”.

Take “195 (GLFADLLPRL; listed as Homo sapiens) [compound 195]”: the Peptide exchange entry is on record as “″+++″ (≥50% = +++)”.

Take “196 (YLYSVEIKL; listed as Homo sapiens) [compound 196]”: the Peptide exchange result was “″++++″ (≥75% = ++++)”.

Take “197 (ALGPEGGRV; listed as Homo sapiens) [compound 197]”: the Peptide exchange entry is reported as “″++″ (≥20% = ++)”.

Take “198 (KTINKVPTV; listed as Homo sapiens) [compound 198]”: the Peptide exchange result is listed as “″+++″ (≥50% = +++)”.

For “200 (LLFGSVQEV; listed as Homo sapiens) [compound 200]”, the Peptide exchange entry is “″+++″ (≥50% = +++)”.

For “201 (RLVDYLEGI; listed as Homo sapiens) [compound 201]”, the Peptide exchange result is “″+++″ (≥50% = +++)”.

With “202 (ALLDQQGSRWTL; listed as Homo sapiens) [compound 202]”, the Peptide exchange entry is reported as “″+++″ (≥50% = +++)”.

In the case of “204 (KIAENVEEV; listed as Homo sapiens) [compound 204]”, the Peptide exchange result is on record as “″++″ (≥20% = ++)”.

In the case of “205 (SLYPGTETMGL; listed as Homo sapiens) [compound 205]”, the Peptide exchange result was “″+++″ (≥50% = +++)”.

In the case of “206 (VLQEGKLQKLAQL; listed as Homo sapiens) [compound 206]”, the Peptide exchange result is “″+++″ (≥50% = +++)”.

As to “207 (GLTSTNAEV; listed as Homo sapiens) [compound 207]”, the Peptide exchange result was “″++″ (≥20% = ++)”.

On to “208 (KISPVTFSV; listed as Homo sapiens) [compound 208]”, for which the Peptide exchange result is listed as “″+++″ (≥50% = +++)”.

For the substance “209 (KLIESKHEV; listed as Homo sapiens) [compound 209]”, the Peptide exchange result was “″++″ (≥20% = ++)”.

For “210 (LLLNAVLTV; listed as Homo sapiens) [compound 210]”, the Peptide exchange entry was “″++″ (≥20% = ++)”.

As to “211 (LLWPGAALL; listed as Homo sapiens) [compound 211]”, the Peptide exchange entry is on record as “″++″ (≥20% = ++)”.

Take “212 (ALWDQDNLSV; listed as Homo sapiens) [compound 212]”: the Peptide exchange result was “″++″ (≥20% = ++)”.

Take “214 (FLLDLDPLLL; listed as Homo sapiens) [compound 214]”: the Peptide exchange result is “″+++″ (≥50% = +++)”.

Consider “215 (QLINHLHAV; listed as Homo sapiens) [compound 215]”, for which the Peptide exchange entry is “″+++″ (≥50% = +++)”.

As to “216 (NLWEDPYYL; listed as Homo sapiens) [compound 216]”, the Peptide exchange entry is “″+++″ (≥50% = +++)”.

In the case of “217 (ALIHPVSTV; listed as Homo sapiens) [compound 217]”, the Peptide exchange entry is recorded as “″++″ (≥20% = ++)”.

As for “218 (SALEELVNV; listed as Homo sapiens) [compound 218]”, the Peptide exchange entry is recorded as “″++″ (≥20% = ++)”.

“219 (KLSDIGITV; listed as Homo sapiens) [compound 219]”: the Peptide exchange result is reported as “″+++″ (≥50% = +++)”.

“220 (LLQKFVPEI; listed as Homo sapiens) [compound 220]”: the Peptide exchange result is given as “″++″ (≥20% = ++)”.
